Target: T1, his-tagged PXRLBD (residues 130-434) (human, UniProt O75469 130-434)
T1 sequence (looked up): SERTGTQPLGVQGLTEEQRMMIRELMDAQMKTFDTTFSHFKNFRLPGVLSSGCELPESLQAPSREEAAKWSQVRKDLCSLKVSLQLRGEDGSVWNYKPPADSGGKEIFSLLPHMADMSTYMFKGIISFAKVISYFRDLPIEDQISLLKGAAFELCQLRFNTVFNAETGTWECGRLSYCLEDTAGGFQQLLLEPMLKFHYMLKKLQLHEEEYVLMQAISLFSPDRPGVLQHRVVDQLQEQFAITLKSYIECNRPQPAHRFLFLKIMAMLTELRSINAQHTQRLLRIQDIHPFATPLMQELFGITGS
Experiment: pull-down

- binding result: binds
B1: SRC186 (human SRC-1 fragment, residues 595-780) (domain or fragment, UniProt Q15788 595-780, looked up)
chain: MIQSDNSSSDGKPLDSGLLHNNDRLSDGDSKYSQTSHKLVQLLTTTAEQQLRHADIDTSCKDVLSCTGTSNSASANSSGGSCPSSHSSLTERHKILHRLLQEGSPSDITTLSVEPDKKDSASTSVSVTGQVQGNSSIKLELDASKKKESKDHQLLRYLLDKDEKDLRSTPNLSLDDVKVKVEKKEQ
modifications: biotin (labeled with biotin reagent)
